What was measured:
CD40 [1] = target: T1, CD40 (Homo sapiens, UniProt P25942); experiment: SPR (Biacore) affinity of anti-CD40 antibodies for human CD40; type: binding; design: Glu21-Arg193; purchased Acrobiosystems Inc. CD0-H5228; conditions: mobile phase Human CD40
Procedure: The test antibody was affinity-captured on an anti-human Fc chip, and a series of concentrations of His-tagged human or cynomolgus monkey CD40 antigen were allowed to flow over the chip surface. Reaction signals were detected in real time using a Biacore instrument, and thus association and dissociation curves were obtained. The buffer used in the experiment was HBS-EP+10× buffer solution (Cat. #BR-1006-69, GE) diluted to 1×(pH 7.4) with D. I. Water. Fitting was performed on the data obtained from the experiment using a (1:1) Binding model to obtain affinity values.
Target sequence in this assay (P25942 21-193): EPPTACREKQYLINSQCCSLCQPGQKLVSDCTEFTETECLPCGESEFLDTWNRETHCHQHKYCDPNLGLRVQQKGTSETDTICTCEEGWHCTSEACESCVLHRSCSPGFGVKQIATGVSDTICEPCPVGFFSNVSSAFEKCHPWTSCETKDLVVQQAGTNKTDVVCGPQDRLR

CD40 [2] = target: T1, CD40; experiment: FACS binding of human-rabbit chimeric anti-CD40 antibodies to Raji cells
Procedure: Raji cells are of a tumor cell line that overexpresses human CD40. 2E5 Raji cells were inoculated onto a 96-well plate. 100 μL of a test antibody was added, with the highest final concentration of 100 nM. The antibody was 5-fold diluted to 8 concentrations. The plate was incubated at 4° C. for 1 h. The plate was washed once with a washing buffer, and an AF647-conjugated anti-human IgG antibody (Jackson Immunoresearch Laborotories, Cat. #205-609-088) was added at a dilution ratio of 1:500. The plate was incubated at 4° C. for 30 min. The plate was washed once with the washing buffer, and fluorescence intensity was measured using a flow cytometer. The binding EC50 values of the anti-CD40 antibodies for CD40 were calculated. The anti-CD40 antagonistic antibody CFZ533 (i.e., iscalimab, Nova) was used as a positive control, and the heavy and light chain variable region sequences were derived from sequence 5 and sequence 2 of U.S. Pat. No. 8,277,810B, respectively.
Target sequence in this assay (P25942 21-277): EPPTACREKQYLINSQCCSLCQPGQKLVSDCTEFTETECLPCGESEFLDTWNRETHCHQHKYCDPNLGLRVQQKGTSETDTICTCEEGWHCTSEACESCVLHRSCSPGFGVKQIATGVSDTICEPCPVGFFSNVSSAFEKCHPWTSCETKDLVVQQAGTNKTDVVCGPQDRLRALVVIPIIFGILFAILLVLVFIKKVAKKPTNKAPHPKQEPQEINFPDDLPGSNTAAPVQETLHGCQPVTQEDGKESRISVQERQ

[3] = mouse, in vivo, ip, 10 mg/kg
Procedure: After arrival, the animals were acclimatized for 7 days and randomly grouped. On day 0 of the experiment, each group of mice was intraperitoneally injected with the anti-CD40 antibody at 10 mg/kg. 100-150 μL of blood samples were collected at 15 min, 4 h, and 8 h after administration, and on days 1, 2, 4, 7, 10, and 14 after administration, anticoagulated with 10 μL of EDTA-K2 (0.1 M), and stored on ice. Mouse plasma was assayed by ELISA for antibody concentration at different time points. The assay is specifically as follows: A goat anti-human IgG Fc antibody (Rockland, Cat. #609-101-017) was diluted to 2.5 μg/mL with PBS and added to a 96-well plate at 50 μL/well, and the plate was incubated overnight at 4° C. After three washes with a washing buffer, 50 μL of blocking solution was added to each well, and the plate was incubated at 37° C. for 1 h. The mouse plasma and the standard curve of the test antibody were added, and the plate was incubated at 37° C. for 2 h. After three washes with the washing buffer, anti-hlgG Fab-HRP (Sigma, Cat. #A0293, 1:10,000) was added at 50 μL/well, and the plate was incubated at room temperature for 1 h. The plate was washed three times with the washing buffer. TMB was added at 100 μL/well, and the mixtures were left to react in the dark for 5 min. 0.16 M sulfuric acid was added at 100 μL/well. The OD value at 450 nm was measured with an Envision microplate reader, and the concentrations of CD40 antagonistic antibodies were calculated.

CD40 [4] = target: T1, CD40; experiment: Inhibition of CD40 reporter gene cell activity (HEK-Blue CD40L cells), humanized antibodies; type: cell-based; design: host or cells: HEK-Blue CD40L cells
Procedure: HEK-Blue CD40L cells were purchased from Invivogen (Cat. #hkb-cd40). The cells were stably transfected with the human CD40 gene and the NF-kB-mediated SEAP genome. The activation level of the CD40 signaling pathway can be characterized by measuring the amount of secreted SEAP in the supernatant using QUANTI-Blue, the substrate of SEAP. In the assays, the inhibitory effects of the CD40 antagonistic antibodies on the CD40L-induced HEK-Blue CD40L cell activation were measured, and the in vitro cell activity of the CD40 antagonistic antibodies was assessed based on IC50.
HEK-Blue CD40L cells were cultured in a DMEM medium containing 10% FBS, 100 μg/mL Normocin, 100 μg/mL Zeocin, and 30 µg/mL Blasticidin, with 2-3 passages a week. HEK-Blue CD40L cells were plated at 5E4 cells/well into a 96-well cell culture plate (the medium was DMEM containing 10% FBS and 100 μg/mL Normocin) and incubated overnight. […] CD40L-his (R&D, 2706-CL-025) and anti-His antibody (R&D, MAB050-500) were added, and the plate was incubated overnight. After cell centrifugation, 20 μL of the cell supernatant was transferred to a new 96-well white plate, and 180 μL of QUANTI-Blue substrate solution was added. […] The absorbance at 620 nm was measured with an Envision microplate reader, and IC50 values were calculated and used to assess the in vitro cell activity of the CD40 antagonistic antibodies.
Target sequence in this assay (P25942 21-277): as above

CD40 [5] = target: T1, CD40; experiment: DC cell activation assay system (monocyte-derived DC, CD40L-induced CD80/CD86, IL-12/23 p40, TNFα); type: cell-based; design: endogenous in cells; host or cells: human PBMCs (B cells); DCs differentiated from human CD14+ monocytes
Description: CD40 is highly expressed on dendritic cells (DCs), and CD40L, upon binding to CD40, can induce DC activation, up-regulate the expression of multiple activation markers on the DC cell surface, and promote the secretion of multiple inflammatory factors from DCs, further amplifying immune responses. CD40 antagonistic antibodies block the binding of CD40L to CD40, thereby eliminating the immune activation process of DC cells.
Monocytes were sorted and enriched from fresh primary human peripheral blood PBMCs using the EsaySep™ human CD14 sorting kit (Stemcell, 19359), and differentiated for 6 days with RPMI-1640 medium (10% FBS and 1% penicillin-streptomycin), 50 ng/ml IL-4 (PeproTech, 200-04), and 50 ng/mL GM-CSF (PeproTech, 300-03). On day 7, the differentiated DC cells were plated at 1E5/well into a 96-well cell culture plate. Serially diluted test antibodies were added to the wells, and the cells were co-incubated at 37° C. in 5% CO2 for 0.5 h. CD40L-his and an anti-His antibody were then added to each well at final concentrations. After 48 h of culture, the level of DC cell activation was measured by flow cytometry: after centrifugation, the supernatant was removed, and the cells were washed twice with FACS buffer (PBS+2% FBS) and stained at room temperature for 15 min with 100 μL of Fixable viability dye EF780 (Invitrogen, 65086514) diluted at 1:1000. The cells were washed twice and then blocked at room temperature for 10 min with 100 μL of human Fc blocker (BD, 564220) diluted at 1:200. After centrifugation, the cells were incubated at 4° C. for 0.5 h with flow cytometry antibodies (Alexa Fluor® 700 anti-human CD11c (Biolegend, 337220), Brilliant Violet 421™ anti-human CD80 (Biolegend, 305221), and APC anti-human CD86 (Biolegend, 305412)) diluted at 1:200. After centrifugation, the supernatant was removed, the cells were washed twice with FACS buffer and then resuspended in 200 μL of PBS, and the fluorescence intensity on the cell surface was measured by a flow cytometer (BD FACS Celesta).
In addition, the level of cytokine secretion in the supernatant was measured after 24 h (TNFα, Cisbio, 62[…]) and 48 h (IL-12/23 p40, Novus, VAL121) of culture.
With reference to the method in Example 11, the inhibitory activity of the anti-CD40 antibody 9E6-L4H2-AAYTE carrying the AAYTE mutation in the Fc in the DC cell activation assay system was measured.
Target sequence in this assay (P25942 21-277): as above

In the case of “CFZ533: anti-CD40 antagonistic antibody CFZ533 (i.e., iscalimab), positive control, variable regions from U.S. Pat. No. 8,277,810B”, the “Ka” value (CD40 [1]) is reported as 688000 M⁻¹ s⁻¹, the Kd (CD40 [1]) is reported as 0.205 nM and the “koff (dissociation rate constant, 1/s)” value (CD40 [1]) is reported as 0.000141 s⁻¹. For the same substance, the EC50 (CD40 [2]) was 2.41 nM, the “AUC(0-d14)((h) * (mg/L))” value [3] was 12655 (h) * (mg/L) and the “C max” value [3] was 75.95 µg/mL. For the same substance, the “T1/2” value [3] was 214.8 h, the IC50 (CD40 [4]; Experiment 1) was 0.36 nM and the IC50 (CD40 [4]; Experiment 2) was 0.35 nM. For the same substance, the IC50 (CD40 [5]; 48 h, read-out: IC50 (nM) in DC cell activation assay system, CD80 MFI) was 1.19 nM, the IC50 (CD40 [5]; 48 h, read-out: IC50 (nM) in DC cell activation assay system, CD86 MFI) was 1.93 nM and the IC50 (CD40 [5]; supernatant, 24 h, read-out: IC50 (nM) in DC cell activation assay system, TNFα) was 0.35 nM. The IC50 (CD40 [5]; supernatant, 48 h, read-out: IC50 (nM) in DC cell activation assay system, IL-12/23 p40) was 0.68 nM.

From patent US20260207759A1, “COMPOSITION OF CD40-BINDING MOLECULE AND PHARMACEUTICAL USE THEREOF” (SUZHOU SUNCADIA BIOPHARMACEUTICALS CO., LTD., priority 2022, published 2026)
